According to article PMC6755086:

Molecular target: Xanthamonas campestris p.v. campestris Class 2 OLD protein, full-length (Xcc^FL, residues 1-595) (Xanthamonas campestris p.v. campestris)
Assay: SEC-MALS

## Xanthamonas campestris p.v. campestris Class 2 OLD protein, full-length (Xcc^FL, residues 1-595) (enzyme)
  stoichiometry N: 4
